One molecule from paper PMC4306385 (Archives of biochemistry and biophysics, 2014) can be followed below.

The target in the experiment is wild-type cardiac actin (ACTC), filaments (UniProt P68032 1-377). Put plainly: co-sedimentation.

B1: N-terminal C0C2 fragment of cardiac myosin binding protein-C (cMyBP-C) (domain or fragment)
chain: MPEPGKKPVSAFNKKPRSAEVTAGSAAVFEAETERSGVMVRWQRDGSDITANDKYGLAAEGKRHTLTVRDASPDDQGSYAVIAGSSKVKFDLKVTEPAPPEKAESEVAPGAPEEVPAPATELEESVSSPEGSVSVTQDGSAAEHQGAPDDPIGLFLMRPQDGEVTVGGSIVFSARVAGASLLKPPVVKWFKGKWVDLSSKVGQHLQLHDSYDRASKVYLFELHITDAQTTSAGGYRCEVSTKDKFDSCNFNLTVHEAIGSGDLDLRSAFRRTSLAGAGRRTSDSHEDAGTPDFSSLLKKRDSFRRDSKLEAPAEEDVWEILRQAPPSEYERIAFQHGVEACHRPLKRLKGMKQDEKKSTAFQKKLEPAYQVNKGHKIRLTVELADPDAEVKWLKNGQEIQMSGSKYIFESVGAKRTLTISQCSLADDAAYQCVVGGEKCSTELFVKEP
On to B1, for which binding was characterised by a dissociation constant (Kd) of 5.02 µM and the “stoichiometry N” value worked out at 0.76 mol/mol actin.

As a reminder, the Kd is the constant that tells how readily two partners part at equilibrium. A low value points to tighter binding. By stoichiometry N is commonly meant the number of molecules, sites or subunits per partner or assembly.
